We go through one substance from patent EP0999853B1.

The target of this assay is recombinant preparation of soluble MAC-1 (UniProt P11215). Description: MAC-1 capture ELISA over total F(ab')2 ELISA; 5 weeks of storage, all formulations F1-F5.

Take “recombinant humanized anti-CD18 antibody (rhuMAb CD18)”: the loss of specific activity at 40°C relative to -70°C is 10 to 15%.
